{"source": "patent US20110262525A1", "about": "“METHODS OF TREATMENT” (SCHERING CORPORATION, priority 2006, published 2011)", "key": {"[1]": {"system": "ALL-8 xenograft (ALL T-cell)", "assay": "PPTP in vivo leukemia xenograft ALL-8", "conditions": "ALL-8 (ALL T-cell) xenograft; 0.5 mg per mouse ip twice weekly for four weeks", "procedure": "(§1) The PPTP includes a molecularly characterized in vitro panel of cell lines (n=27) and in vivo panel of xenografts (n=61) representing most of the common types of childhood solid tumors and childhood ALL (acute lymphoblastic leukemia). LCF/HCA anti-IGF1R antibody was tested against the PPTP in vitro panel at concentrations ranging from 0.01 nM to 100 nM; and was tested against the PPTP in vivo panel at a dose of 0.5 mg per mouse administered twice weekly for four weeks via intraperitoneal injection. […]\n(§2) In vivo acute lymphoblastic leukemia testing: For each xenograft line, 8 mice were inoculated with 3-5×10^6 mononuclear cells purified from the spleens of secondary recipient mice. Engraftment was monitored weekly by flow cytometry, and treatment was initiated when the proportion of human CD45+ cells in the peripheral blood reached 1%. The proportion of human CD45+ cells in the peripheral blood was monitored weekly throughout the course of treatment. […]\n(§3) Median Group Response: Each individual mouse in each treatment group was assigned a response score (see Tables above) and a median score for the treatment group was calculated and then each treatment group was assigned an overall response according to the table below. […]"}, "[2]": {"system": "GBM2 xenograft (Glioblastoma)", "assay": "PPTP in vivo xenograft GBM2", "procedure": "(§4) The PPTP includes a molecularly characterized in vitro panel of cell lines (n=27) and in vivo panel of xenografts (n=61) representing most of the common types of childhood solid tumors and childhood ALL (acute lymphoblastic leukemia). LCF/HCA anti-IGF1R antibody was tested against the PPTP in vitro panel at concentrations ranging from 0.01 nM to 100 nM; and was tested against the PPTP in vivo panel at a dose of 0.5 mg per mouse administered twice weekly for four weeks via intraperitoneal injection. Three measures of antitumor activity were used: 1) response criteria modeled after the clinical setting; 2) treated-to-control (T/C) tumor volume at day 21; and 3) a time to event (4-fold increase in tumor volume) measure based on the median EFS of treated and control lines (intermediate activity required EFS (event-free survival) T/C>2, and high activity additionally required a net reduction in median tumor volume at the end of the experiment).\n(§5) Stage 1 testing involved testing an agent across the entire PPTP panel of childhood cancer xenograft lines at its maximum tolerated dose (MTD) or at a dose selected based on PK/PD (pharmacokinetic/pharmacodynamic) studies using adult preclinical models.\n(§6) In vivo solid tumor testing: For each xenograft line, 10 mice bearing subcutaneous (SC) tumors initiated treatment when the tumors were between 0.2-0.5 cm^3 in volume. Two perpendicular tumor diameters were measured at once weekly intervals with digital vernier calipers. Assuming tumors to be spherical, volumes were calculated from the formula (π/6)×d3, where d represented the mean diameter.\n(§7) Drug: LCF/HCA was dissolved in 20mM sodium acetate pH 5 buffer containing 150 mM sodium chloride, and administered intraperitoneally twice weekly for 4 consecutive weeks at a dose of 0.5 mg per animal. […]\nas §3"}, "[3]": {"system": "ALL-2 xenograft (ALL B-precursor)", "assay": "PPTP in vivo leukemia xenograft ALL-2", "conditions": "ALL-2 (ALL B-precursor) xenograft; 0.5 mg per mouse ip twice weekly for four weeks", "procedure": "as §1, §2, §3"}, "[4]": {"system": "KT-14 xenograft (Rhabdoid)", "assay": "PPTP in vivo xenograft KT-14", "design": "key to EFS activity notation (high, intermediate, indeterminate): high (!); intermediate (#); indeterminate (^)", "conditions": "KT-14 (Rhabdoid) xenograft, 0.5 mg per mouse ip twice weekly for four weeks", "procedure": "as §4, §5, §6\n(§8) Drug: LCF/HCA was dissolved in 20mM sodium acetate pH 5 buffer containing 150 mM sodium chloride, and administered intraperitoneally twice weekly for 4 consecutive weeks at a dose of 0.5 mg per animal. The antibody was provided to each testing site in coded vials for blinded testing according the PPTP's standard operating procedures.\n(§9) Median Group Response: Each individual mouse in each treatment group was assigned a response score (see Tables above) and a median score for the treatment group was calculated and then each treatment group was assigned an overall response according to the table below.\n(§10) Statistical Methods: Event-free survival (EFS) distributions of each treatment group were compared to the EFS distribution of the respective control group using the exact log rank test. P-values were 2-sided & were not adjusted for multiple comparisons given the exploratory nature of this study. P-values<0.05 were considered to be significant."}, "[5]": {"system": "Rh30R xenograft (ALV Rhabdomyosarcoma)", "assay": "PPTP in vivo xenograft Rh30R", "procedure": "as §4, §5, §6, §8, §9, §10"}, "[6]": {"system": "SK-NEP-1 xenograft (Ewings)", "assay": "PPTP in vivo xenograft SK-NEP-1", "conditions": "SK-NEP-1 (Ewings) xenograft, 0.5 mg per mouse ip twice weekly for four weeks", "procedure": "as §4, §5, §6, §7, §3"}, "[7]": {"system": "BT-50 xenograft (Medulloblastoma)", "assay": "PPTP in vivo xenograft BT-50", "conditions": "BT-50 (Medulloblastoma) xenograft, 0.5 mg per mouse ip twice weekly for four weeks", "procedure": "as §4, §5, §6, §7, §3"}, "[8]": {"system": "Human melanoma cells (A375-SM)", "assay": "Cell-Titer Glo assay, A375-SM melanoma", "format": "cell-based", "conditions": "0.000256-100 nM antibody"}, "[9]": {"system": "gastric cancer cell line SNU-16", "assay": "Cell-Titer Glo proliferation assay, SNU-16", "format": "cell-based, human", "conditions": "0.000256-100 nM antibody"}, "[10]": {"system": "NB-1691 xenograft (Neuroblastoma)", "assay": "PPTP in vivo xenograft NB-1691", "conditions": "NB-1691 (Neuroblastoma) xenograft, 0.5 mg per mouse ip twice weekly for four weeks", "procedure": "as §4, §5, §6, §7, §3"}, "[11]": {"system": "ALL-7 xenograft (ALL B-precursor)", "assay": "PPTP in vivo leukemia xenograft ALL-7", "conditions": "ALL-7 (ALL B-precursor) xenograft; 0.5 mg per mouse ip twice weekly for four weeks", "procedure": "as §1, §2, §3"}, "[12]": {"system": "D456 xenograft (Glioblastoma)", "assay": "PPTP in vivo xenograft D456", "procedure": "as §4, §5, §6, §7, §3"}, "EW8 xenograft (Ewings)": {"system": "EW8 xenograft (Ewings)", "assay": "PPTP in vivo xenograft EW8", "procedure": "as §4, §5, §6, §7, §3"}, "[13]": {"system": "BT-29 xenograft (Rhabdoid)", "assay": "PPTP in vivo xenograft BT-29", "conditions": "BT-29 (Rhabdoid) xenograft, 0.5 mg per mouse ip twice weekly for four weeks", "procedure": "as §4, §5, §6, §7, §3"}, "[14]": {"conditions": "0.5 mg per mouse ip twice weekly for four weeks"}, "[15]": {"conditions": "day 21, 0.5 mg per mouse ip twice weekly for four weeks"}}, "note": "Marks after values point to notes of the source that are not given here.", "data": [{"molecule": "LCF/HCA: fully human anti-IGF1R antibody comprising the mature 19D12/15H12 light chain F (LCF) and mature heavy chain A (HCA) (antibody, V domains shown) VH: EVQLVQSGGGLVHPGGSLRLSCAASGFTFSSFAMHWVRQAPGKGLEWISVIDTRGATYYADSVKGRFTISRDNAKNSLYLQMNSLRAEDMAVYYCARLGNFYYGMDVWGQGTTVTVSS VL: EIVLTQVPDFQSVTPKEKVTITCRASQSIGSSLHWYQQKPDQSPKLLIKYASQSLSGVPSRFSGSGSGTDFTLTINSLEAEDAAAYYCHQSSRLPHTFGGGTKVEIKRT", "values": [{"measurement": "EFS T/C", "setting": "[1]", "value": 1.5}, {"measurement": "Median Final RTV", "setting": "[1]", "value": ">25"}, {"measurement": "EFS T/C", "setting": "[2]; [14]", "value": 1.4}, {"measurement": "Median Final RTV", "setting": "[2]; [14]", "value": ">4"}, {"measurement": "Tumor Volume T/C", "setting": "[2]; [15]", "value": 0.73}, {"measurement": "EFS T/C", "setting": "[3]", "value": 0.7}, {"measurement": "Median Final RTV", "setting": "[3]", "value": ">25"}, {"measurement": "EFS T/C", "setting": "[4]", "value": "> 3.3"}, {"measurement": "EFS activity notation (high, intermediate, indeterminate)", "setting": "[4]", "value": "#"}, {"measurement": "Median Final RTV", "setting": "[4]", "value": "1.6#"}, {"measurement": "Overall Group Response", "setting": "[4]", "value": "PD2 (1 < MS ≦ 3)"}, {"measurement": "Tumor Volume T/C", "setting": "[4]; day 21", "value": 0.6}, {"measurement": "EFS T/C", "setting": "[5]; [14]", "value": 1.8}, {"measurement": "Median Final RTV", "setting": "[5]; [14]", "value": ">4"}, {"measurement": "Overall Group Response", "setting": "[5]; [14]", "value": "PD2 (1 < MS ≦ 3)"}, {"measurement": "Tumor Volume T/C", "setting": "[5]; [15]", "value": 0.49}, {"measurement": "EFS T/C", "setting": "[6]", "value": 0.9}, {"measurement": "Median Final RTV", "setting": "[6]", "value": ">4"}, {"measurement": "Tumor Volume T/C", "setting": "[6]; day 21", "value": 1.08}, {"measurement": "Median Final RTV", "setting": "[7]", "value": 1.4}, {"measurement": "Overall Group Response", "setting": "[7]", "value": "PD2 (1 < MS ≦ 3)"}, {"measurement": "Tumor Volume T/C", "setting": "[7]; day 21", "value": 0.94}, {"measurement": "in vitro growth of melanoma cell line", "setting": "[8]", "value": "in vitro growth inhibition"}, {"measurement": "proliferation of gastric cancer cell line", "setting": "[9]", "value": "inhibitied"}, {"measurement": "EFS T/C", "setting": "[10]", "value": 0.9}, {"measurement": "Median Final RTV", "setting": "[10]", "value": ">4"}, {"measurement": "Tumor Volume T/C", "setting": "[10]; day 21", "value": 1.34}, {"measurement": "EFS T/C", "setting": "[11]", "value": 1}, {"measurement": "Median Final RTV", "setting": "[11]", "value": ">25"}, {"measurement": "EFS T/C", "setting": "[12]; [14]", "value": 1.1}, {"measurement": "Median Final RTV", "setting": "[12]; [14]", "value": ">4"}, {"measurement": "Tumor Volume T/C", "setting": "[12]; [15]", "value": 0.77}, {"measurement": "EFS T/C", "setting": "EW8 xenograft (Ewings); [14]", "value": 1.5}, {"measurement": "Median Final RTV", "setting": "EW8 xenograft (Ewings); [14]", "value": ">4"}, {"measurement": "Tumor Volume T/C", "setting": "EW8 xenograft (Ewings); [15]", "value": 0.86}, {"measurement": "EFS T/C", "setting": "[13]", "value": 1.4}, {"measurement": "Median Final RTV", "setting": "[13]", "value": ">4"}, {"measurement": "Tumor Volume T/C", "setting": "[13]; day 21", "value": 0.77}]}]}
